Values of other authors, collected in article PMC9080292, “Correction: Rational design of a peptide capture agent for CXCL8 based on a model of the CXCL8:CXCR1 complex” (RSC Advances, 2018).
Square brackets hold non-standard residues; d marks the D form. Ends that are not written are not given here. Ahx = NCCCCCC(=O)O

Key:
[1] = molecular target: T1, CXCL8 (Homo sapiens, UniProt P10145); conditions: original publication; fluorescence anisotropy; now attributed to the peptide ending with glutamic acid; ref Helmer et al., RSC Adv., 2015, 5, 25657–25668; read-out: affinity (reported high affinity); cited from earlier work
T1 sequence (P10145 21-99): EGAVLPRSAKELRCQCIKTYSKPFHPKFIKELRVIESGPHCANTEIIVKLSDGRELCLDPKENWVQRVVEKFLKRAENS
Experimental: This was confirmed by high resolution mass spectrometry. […] We conclude that all experiments were performed with the peptid ...

[2] = synthesized peptide, result in words; ref Helmer et al., RSC Adv., 2015, 5, 25657–25668; cited from earlier work

## AKWRMVLRI–Ahx–ADTLMRTE (AKWRMVLRI[Ahx]ADTLMRTE) [IL8-RP-Loops, IL8 capture peptide; actually synthesized peptide with C-terminal glutamic acid]
[1]
  Kd: 500 ± 300 nM

## AKWRMVLRI[Ahx]ADTLMRTE [IL8-RP-Loops, IL8 capture peptide; actually synthesized peptide with C-terminal glutamic acid]
[2]
  structure by CD-spectroscopy: a helical structure
